This is an account of results in patent publication US20150284470A1.

As usually defined, the Kd is the free concentration of one partner at which half of the binding sites on the other are occupied at equilibrium, for simple one-to-one binding. A lower Kd goes with tighter binding.

In one assay the target is CD32b(Y163) (UniProt P31994). Put plainly: SPR. (In general: In SPR one partner is held on a chip, and binding of the other changes the refractive index at the surface.)
For a further assay, the target named is FcRn (human) (UniProt P55899). Nature of the assay: SPR; pH 6.0.
Sequence of FcRn (human) (P55899 24-297): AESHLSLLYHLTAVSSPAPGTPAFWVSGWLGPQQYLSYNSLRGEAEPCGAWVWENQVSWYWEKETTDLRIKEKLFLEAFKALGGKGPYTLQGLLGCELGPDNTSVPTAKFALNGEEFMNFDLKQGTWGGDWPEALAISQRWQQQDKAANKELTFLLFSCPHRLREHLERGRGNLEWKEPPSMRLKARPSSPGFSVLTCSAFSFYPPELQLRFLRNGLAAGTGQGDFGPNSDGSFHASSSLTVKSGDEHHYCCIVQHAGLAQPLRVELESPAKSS

Sequence of CD32b(Y163) (P31994 43-217): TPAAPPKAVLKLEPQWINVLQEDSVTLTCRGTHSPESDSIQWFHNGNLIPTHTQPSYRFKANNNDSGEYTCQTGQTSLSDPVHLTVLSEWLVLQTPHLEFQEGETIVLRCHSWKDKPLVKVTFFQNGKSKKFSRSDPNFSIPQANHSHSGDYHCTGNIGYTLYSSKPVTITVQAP

Take Herceptin WT: the Kd worked out at 1700 nM in the assay with CD32b(Y163) and 3700 nM with FcRn (human).
